# Test results taken from the Human Domainome abundance scans (Beltran et al. 2025).
# ± gives the uncertainty stated by the source.
# B1: Protein C-ets-1, residues 55 to 135; numbered along this chain, P14921 (parent)
# chain: GFTKEQQRLGIPKDPRQWTETHVRDWVMWAVNEFSLKGVDFQKFCMNGAALCALGKDCFLELAPDFVGDILWEHLEILQKE
# Variants of: B1
# Test: abundance fitness (aPCA) (normalised: wild type 0, dead -1); higher = more abundant; growth selection in yeast, the domain comes from the species named
# Details: Homo sapiens
row,Variant,abundance fitness
1,D69H,-0.153 ± 0.083
2,D69M,-0.055 ± 0.065
3,D69R,-0.09 ± 0.04
4,D69E,-0.035 ± 0.062
5,D69F,-0.301 ± 0.066
6,D69Y,-0.038 ± 0.089
7,D69W,-0.262 ± 0.056
8,P15Q,-0.838 ± 0.19
9,P15T,-0.498 ± 0.067
10,P15K,-0.813 ± 0.25
11,P15C,-0.254 ± 0.075
12,L75V,-0.721 ± 0.059
13,L75M,-0.169 ± 0.055
14,L75H,-0.914 ± 0.25
15,L75G,-0.935 ± 0.073
16,L75E,-0.952 ± 0.14
17,E33P,-0.796 ± 0.074
18,E33I,-0.498 ± 0.1
19,E33T,-0.063 ± 0.043
20,E33H,-0.006 ± 0.066
21,E33F,-0.134 ± 0.074

row,Variant,abundance fitness
1,D65T,0.027 ± 0.09
2,D65K,-0.01 ± 0.065
3,D65W,-0.311 ± 0.058
4,L78S,-0.508 ± 0.049
5,L78V,-0.097 ± 0.029
6,L78R,-0.583 ± 0.035
7,L78K,-0.649 ± 0.079
8,L78E,-0.5 ± 0.066
9,L78W,-0.244 ± 0.047
10,L78T,-0.289 ± 0.066
11,L78H,-0.553 ± 0.1
12,L78P,-0.513 ± 0.048
13,C45N,0.116 ± 0.11
14,C45F,-0.028 ± 0.081
15,C45R,-0.024 ± 0.029
16,F66C,-0.031 ± 0.054
17,F66R,0.033 ± 0.046
18,F66M,-0.032 ± 0.048
19,F66I,0.021 ± 0.063
20,E61H,-0.089 ± 0.11
21,E61K,0.066 ± 0.077

row,Variant,abundance fitness
1,E61R,-0.033 ± 0.041
2,G55L,-0.791 ± 0.054
3,G55A,0.002 ± 0.035
4,G55H,-0.055 ± 0.066
5,G55Y,-0.502 ± 0.064
6,Q42D,-0.029 ± 0.058
7,Q42I,-0.619 ± 0.1
8,K37W,-0.213 ± 0.037
9,K37S,-0.033 ± 0.032
10,G68T,-0.204 ± 0.052
11,V67Q,-0.069 ± 0.051
12,V67F,-0.267 ± 0.16
13,V67D,-0.138 ± 0.096
14,V67A,-0.062 ± 0.054
15,V67C,-0.04 ± 0.095
16,Q7I,0.062 ± 0.086
17,Q7N,-0.026 ± 0.13
18,Q7R,-0.034 ± 0.031
19,F34D,-0.623 ± 0.068
20,F34C,-0.428 ± 0.048
21,F34N,-0.244 ± 0.069

row,Variant,abundance fitness
1,F34L,-0.276 ± 0.028
2,F34T,-0.743 ± 0.067
3,F34M,-0.362 ± 0.053
4,F34Q,-0.358 ± 0.047
5,L71Q,-0.938 ± 0.17
6,L71R,-0.979 ± 0.08
7,L71T,-0.883 ± 0.14
8,L71N,-0.128 ± 0.38
9,L71W,-0.946 ± 0.11
10,V27M,-0.045 ± 0.049
11,V27L,-0.013 ± 0.03
12,V27R,-0.876 ± 0.042
13,M46F,-0.028 ± 0.09
14,M46C,-0.317 ± 0.076
15,M46L,-0.074 ± 0.036
16,A53T,-0.039 ± 0.037
17,A53S,0.016 ± 0.031
18,C58W,-0.101 ± 0.036
19,C58L,-0.026 ± 0.033
20,C58I,-0.094 ± 0.073
21,T3R,-0.082 ± 0.037
